Assay [1] has as its target hMOR-1Y (human, UniProt P35372 1-388). In words: cell-based or functional assay.
The target of assay [2] is hMOR-1 (human, UniProt P35372 1-400). In words: cell-based or functional assay.
The target in assay [3] is hMOR-1B1 (human, UniProt P35372 1-388). In words: cell-based or functional assay.
Assay [4] addresses hMOR-1A (human). The assay is described as follows: cell-based or functional assay.
In assay [5] the target is hMOR-1B3 (human, UniProt P35372 1-388). In words: cell-based or functional assay.
Assay [6] has as its target hMOR-1B5 (human, UniProt P35372 1-388). The assay is described as follows: cell-based or functional assay.
Assay [7] concerns the target hMOR-1 (exons 1-3) (human, UniProt P35372 1-388). In words: cell-based or functional assay.
Assay [8] addresses hMOR-1B4 (human, UniProt P35372 1-388). In words: cell-based or functional assay.
Assay [9] has as its target hMOR-1B2 (human, UniProt P35372 1-388). In words: cell-based or functional assay.
Assay [10] has as its target T1, rMOR-1D (rat).
T1 construct: whole, on cells
The assay is described as follows: competition against [3H]DAMGO (~1 nM), membranes of stable CHO transfectants. As to the method:
(§1) ANOVA was performed, followed by Tukey's post hoc analysis. Results are the mean ±S.E. of at least three independent determinations.

For assay [11], the target named is T2, rMOR-1C1 (rat).
T2 construct: whole, on cells
Described as above. As to the method:
as §1

The target in assay [12] is T3, rMOR-1 (no Exon 4) (rat, UniProt P33535 1-386, limits assumed).
T3 construct: domain: no Exon 4; also called rMOR-1 no E 4; rMOR-1 (no E4)
Described as above. On the procedure: as §1

Assay [13] concerns the target T4, rMOR-1A (rat).
T4 chain: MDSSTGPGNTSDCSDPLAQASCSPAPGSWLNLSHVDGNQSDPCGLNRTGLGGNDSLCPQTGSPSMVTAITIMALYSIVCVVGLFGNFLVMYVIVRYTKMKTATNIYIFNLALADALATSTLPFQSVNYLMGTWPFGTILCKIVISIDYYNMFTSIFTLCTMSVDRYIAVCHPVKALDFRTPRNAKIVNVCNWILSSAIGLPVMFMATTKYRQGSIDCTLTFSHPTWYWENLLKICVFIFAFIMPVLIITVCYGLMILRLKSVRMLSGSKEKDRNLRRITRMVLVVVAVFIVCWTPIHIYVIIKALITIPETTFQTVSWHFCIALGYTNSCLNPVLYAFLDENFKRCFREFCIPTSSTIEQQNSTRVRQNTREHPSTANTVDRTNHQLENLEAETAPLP
Described as above. As to the method:
as §1

Assay [14] concerns the target T1, rMOR-1D. The assay is described as follows: cell-based or functional assay.
Assay [15] addresses T2, rMOR-1C1. The assay is described as follows: cell-based or functional assay.
For assay [16], the target named is T3, rMOR-1 (no Exon 4). In words: cell-based or functional assay.
Assay [17] concerns the target T4, rMOR-1A. In words: cell-based or functional assay.
In assay [18] the target is rMOR-1 (rat, UniProt P33535 1-398). In words: cell-based or functional assay.

B1: β-Endorphin (peptide, UniProt P01189 237-267, looked up)
peptide: YGGFMTSEKSQTPLVTLFKNAIIKNAYKKGE
notes: also called B-Endorphin
Turning to B1, the “Max Inhib (%)” value in assay [1] stood at 90%; in assay [2] it was 79%; in assay [3], 65%; in assay [4], 73%; in assay [5], 73%; in assay [6], 69%. In addition, the “Max Inhib (%)” value in [7] was found to be 73%; in [8], 69%; in assay [9], 65%. The Ki in assay [10] is 8.5 nM; in assay [11] it was 8.8 nM; in [12], 10 nM; in assay [13] it was 10.5 nM. Also, the “EC50 (nM), stimulation of [35S]GTPγS binding” value was 91 nM in [14], 90 nM in [16] and 4 nM in assay [18]. Moreover, the “Max Stim (%)” value in assay [14] worked out at 165%; in assay [15], 361%; in assay [16], 240%; in assay [17] it was 177%; in [18], 246%.

By Ki is commonly meant the equilibrium dissociation constant of an inhibitor or competing ligand from its target. Low readings indicate a stronger hold on the target, high ones a looser hold on the target.

The values above are taken from patent US20070258988A1 (SLOAN KETTERING INSTITUTE FOR CANCER RESEARCH, published 2007).
